From the supplement of paper PMC10567573

B1: C22orf15 (parent)
chain: RGRHEQSPTSRPRKVSSLPPRSC

Variants of: B1
Test: protein stability index of a GFP-peptide fusion (GPS, HEK-293T) (PSI 1-6); higher = more stable
Details: c terminus: native
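Also: lentivirally expressed fusions sorted by FACS into six bins by GFP to DsRed ratio, PSI derived from sequencing read proportions per bin multiplied by bin number.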

| Variant | protein stability index |
| --- | --- |
| RGRHEQSPTSRTRKVSSLPPRSC [P12T] | 2.55 |
| RGRHEQSPTSRHRKVSSLPPRSC [P12H] | 2.55 |
| RGRHEQSPTSRMRKVSSLPPRSC [P12M] | 1.89 |
| RGRHEQSPTSRQRKVSSLPPRSC [P12Q] | 3.88 |
| RGRHEQSPTSRYRKVSSLPPRSC [P12Y] | 3.13 |
| RGRHEQSPTSRGRKVSSLPPRSC [P12G] | 1.4 |
| RGRHEQSPTSRWRKVSSLPPRSC [P12W] | 2.55 |
| RGRHEQSPTSRDRKVSSLPPRSC [P12D] | 2.8 |
| RGRHEQSPTSRPRKVSSLPERSC [P20E] | 2.84 |
| RGRHEQSPTSRPRKVSSLPVRSC [P20V] | 2.26 |
| RGRHEQSPTSRPRKVSSLPDRSC [P20D] | 3.82 |
| RGRHEQSPTSRPRKVSSLPSRSC [P20S] | 1.99 |
| RGRHEQSPTSRPRKVSSLPCRSC [P20C] | 1.58 |
| RGRHEQSPTSRPRKVSSLPFRSC [P20F] | 4.13 |
| RGRHEQSPTSRPRKVSSLPARSC [P20A] | 3 |
| RGRHEQSPTSRPRKVSSLPYRSC [P20Y] | 2.1 |
| RGRHEQSPTSRPRKVSSLPIRSC [P20I] | 2.72 |
| RGRHEQSPTSRPRKVSQLPPRSC [S17Q] | 2.34 |
| RGRHEQSPTSRPRKVSKLPPRSC [S17K] | 1.93 |
| RGRHEQSPTSRPRKVSPLPPRSC [S17P] | 3.73 |
| RGRHEQSPTSRPRKVSNLPPRSC [S17N] | 2.99 |
| RGRHEQSPTSRPRKVSYLPPRSC [S17Y] | 2.45 |
| RGRHEQSPTSRPRKVSRLPPRSC [S17R] | 3.79 |
| RGRHEQSPTSRPRKVSMLPPRSC [S17M] | 1.89 |
| RGRHEQSPTSRPRKVSILPPRSC [S17I] | 2.3 |

| Variant | protein stability index |
| --- | --- |
| RGRHEQSPTSRPRKVSELPPRSC [S17E] | 3.27 |
| RGRHEQSPTSRPRKVSGLPPRSC [S17G] | 1.99 |
| RGRHEQSPTSRPRKVSSCPPRSC [L18C] | 2.88 |
| RGRHEQSPTSRPRKVSSVPPRSC [L18V] | 3.25 |
| RGRHEQSPTSRPRKVSSIPPRSC [L18I] | 2.76 |
| RGRHEQSPTSRPRKVSSWPPRSC [L18W] | 3.64 |
| RGRHEQSPTSRPRKVSSDPPRSC [L18D] | 1.5 |
| RGRHEQSPTSRPRKVSSHPPRSC [L18H] | 3.38 |
| RGRHEQSPTSRPRKVSSMPPRSC [L18M] | 3.65 |
| RGRHEQSPTSRPRKVSSAPPRSC [L18A] | 1.68 |
| RGRHEQSPTSRPRKVSSTPPRSC [L18T] | 4.07 |
| RGRHEQSPTSRPRKVSSYPPRSC [L18Y] | 2.29 |
| RGRHEQSPTSRPQKVSSLPPRSC [R13Q] | 1.47 |
| RGRHEQSPTSRPTKVSSLPPRSC [R13T] | 2.73 |
| RGRHEQSPTSRPEKVSSLPPRSC [R13E] | 2.88 |
| RGRHEQSPTSRPCKVSSLPPRSC [R13C] | 3.56 |
| RGRHEQSPTSRPMKVSSLPPRSC [R13M] | 3.68 |
| RGRHEQSPTSRPFKVSSLPPRSC [R13F] | 2.43 |
| RGRHEQSPTSRPWKVSSLPPRSC [R13W] | 1.54 |
| RGRHEQSPTSRPHKVSSLPPRSC [R13H] | 3.08 |
| RGRHEQSPTSRPDKVSSLPPRSC [R13D] | 4.32 |
| RGRHEQSPTSRPLKVSSLPPRSC [R13L] | 3.56 |
| RGRHEQSPTSRPYKVSSLPPRSC [R13Y] | 1.49 |
| RGRHEQSPTSRPSKVSSLPPRSC [R13S] | 2.15 |
| RGRHEQSPTSRPRKHSSLPPRSC [V15H] | 4.12 |

| Variant | protein stability index |
| --- | --- |
| RGRHEQSPTSRPRKNSSLPPRSC [V15N] | 2.71 |
| RGRHEQSPTSRPRKGSSLPPRSC [V15G] | 2.29 |
| RGRHEQSPTSRPRKRSSLPPRSC [V15R] | 2.8 |
| RGRHEQSPTSRPRKCSSLPPRSC [V15C] | 2.52 |
| RGRHEQSPTSRPRKDSSLPPRSC [V15D] | 1.97 |
| RGRHEQSPTSRPRKSSSLPPRSC [V15S] | 2.1 |
| RGRHEQSPTSRPRKKSSLPPRSC [V15K] | 3.42 |
| RGRHEQSPTSRPRKTSSLPPRSC [V15T] | 1.82 |
| RGRHEQSPTSRPRKPSSLPPRSC [V15P] | 4.67 |
| RGRHEQSPTSRPRKFSSLPPRSC [V15F] | 3.96 |
| RGRHEQSPTSRPRKQSSLPPRSC [V15Q] | 2.22 |
| RGRHEQSPTSRPRKLSSLPPRSC [V15L] | 3.74 |
| RHRHEQSPTSRPRKVSSLPPRSC [G2H] | 1.16 |
| RQRHEQSPTSRPRKVSSLPPRSC [G2Q] | 2.2 |
| RIRHEQSPTSRPRKVSSLPPRSC [G2I] | 2.64 |
| RFRHEQSPTSRPRKVSSLPPRSC [G2F] | 2.04 |
| RERHEQSPTSRPRKVSSLPPRSC [G2E] | 1.27 |
| RYRHEQSPTSRPRKVSSLPPRSC [G2Y] | 3.84 |
| RRRHEQSPTSRPRKVSSLPPRSC [G2R] | 2.96 |
| RDRHEQSPTSRPRKVSSLPPRSC [G2D] | 2.01 |
| RMRHEQSPTSRPRKVSSLPPRSC [G2M] | 1.9 |
| RSRHEQSPTSRPRKVSSLPPRSC [G2S] | 3.1 |
| RGRHEQSPTSRPRNVSSLPPRSC [K14N] | 1.24 |
| RGRHEQSPTSRPRGVSSLPPRSC [K14G] | 3.13 |
| RGRHEQSPTSRPRFVSSLPPRSC [K14F] | 3.52 |

| Variant | protein stability index |
| --- | --- |
| RGRHEQSPTSRPRWVSSLPPRSC [K14W] | 1.93 |
| RGRHEQSPTSRPRIVSSLPPRSC [K14I] | 2.67 |
| RGRHEQSPTSRPRDVSSLPPRSC [K14D] | 3.71 |
| RGRHEQSPTSRPRVVSSLPPRSC [K14V] | 3.29 |
| RGRHEQSPTSRPRYVSSLPPRSC [K14Y] | 2.54 |
| RGRHEQSPTSRPREVSSLPPRSC [K14E] | 3.42 |
| RGRHEQSPTSRPRQVSSLPPRSC [K14Q] | 4.04 |
| RGRHEQSPTSRPRTVSSLPPRSC [K14T] | 4.73 |
| RGRHEQSQTSRPRKVSSLPPRSC [P8Q] | 2.65 |
| RGRHEQSRTSRPRKVSSLPPRSC [P8R] | 4.11 |
| RGRHEQSHTSRPRKVSSLPPRSC [P8H] | 3.48 |
| RGRHEQSKTSRPRKVSSLPPRSC [P8K] | 3.28 |
| RGRHEQSCTSRPRKVSSLPPRSC [P8C] | 3.78 |
| RGRHEQSGTSRPRKVSSLPPRSC [P8G] | 2.55 |
| RGRHEQSNTSRPRKVSSLPPRSC [P8N] | 2.71 |
| RGRHEQSPTSRPRKVSSLPPQSC [R21Q] | 4.51 |
| RGRHEQSPTSRPRKVSSLPPKSC [R21K] | 5.13 |
| RGRHEQSPTSRPRKVSSLPPCSC [R21C] | 3.38 |
| RGRHEQSPTSRPRKVSSLPPTSC [R21T] | 4.25 |
| RGRHEQSPTSRPRKVSSLPPGSC [R21G] | 1.74 |
| RGRHEQSPTSRPRKVSSLPPESC [R21E] | 5.2 |
| RGRHEQSPTSRPRKVSSLPPISC [R21I] | 2.83 |
